Results as given in patent US20220403001A1, “PDE5 DERIVED REGULATORY CONSTRUCTS AND METHODS OF USE IN IMMUNOTHERAPY” (Obsidian Therapeutics, Inc., priority 2018, published 2022).

Columns and labels:
[1] = target: hPDE5 mutants (Homo sapiens, UniProt O76074); experiment: GFP FACS analysis of hPDE5 mutant library clones in NIH3T3 cell pools; details: for Stabilization ratio: GFP intensity 10 μM vardenafil vs DMSO; for Stabilization ratio / Destabilizing mutation co-efficient / MFI 10 μM VDF / MFI DMSO / GFP FACS analysis (MFI): experiment 1; for Destabilizing mutation co-efficient: GFP intensity mutant vs PDE5 wildtype construct in absence of ligand; for MFI 10 μM VDF / MFI DMSO: GFP, NIH3T3 cell pools; for MFI 10 μM VDF: 10 μM vardenafil 24 hr; for MFI DMSO: no ligand (DMSO)
[2] = system: hPDE5 mutants; experiment: as above; details: experiment 1

With “LibC000002: hPDE5 (Amino acid 535-860 of WT, I700F, E796G), DD generated by random mutagenesis” the “Stabilization ratio” value [1] was 3.2, the Destabilizing mutation co-efficient [1] was 0.05 and the “MFI 10 μM VDF” value [1] was 981. For the same substance, the “MFI DMSO” value [1] was 309.

“LibC000003: hPDE5 (Amino acid 535-860 of WT, D724G, K848N), DD generated by random mutagenesis” was tested, and the “Stabilization ratio” value [1] was 2.9, the Destabilizing mutation co-efficient [1] was 0.11 and the “MFI 10 μM VDF” value [1] was 1870. The “MFI DMSO” value [1] was 656.

In the case of “LibC000005: hPDE5 (Amino acid 535-860 of WT, I556S, E796D), DD generated by random mutagenesis”, the “MFI 10 μM VDF” value [1] is reported as 2081, the “MFI DMSO” value [1] is reported as 271 and the “GFP FACS analysis (MFI)” value ([1]; SDF 3.704 μM) is reported as 518. For the same substance, the “GFP FACS analysis (MFI)” value ([1]; SDF 11.111 μM) was 577, the “GFP FACS analysis (MFI)” value ([1]; SDF 33.333 μM) was 734 and the “GFP FACS analysis (MFI)” value ([1]; SDF 100 μM) was 1136. For the same substance, the “GFP FACS analysis (MFI)” value ([1]; TDF 3.704 μM) was 453, the “GFP FACS analysis (MFI)” value ([1]; TDF 11.111 μM) was 551 and the “GFP FACS analysis (MFI)” value ([1]; TDF 33.333 μM) was 711. The “GFP FACS analysis (MFI)” value ([1]; TDF 100 μM) was 814, the “GFP FACS analysis (MFI)” value ([1]; VDF 1.235 μM) was 1044 and the “GFP FACS analysis (MFI)” value ([1]; VDF 3.704 μM) was 1968. The “GFP FACS analysis (MFI)” value ([1]; VDF 11.111 μM) was 3066, the “GFP FACS analysis (MFI)” value ([1]; VDF 33.333 μM) was 3892 and the “GFP FACS analysis (MFI)” value ([1]; VDF 100 μM) was 4240. For the same substance, the “Fluorescence intensity Sildenafil” value ([1]; median GFP fluorescence by FACS, 10 μM Sildenafil, direct comparison of clones) was 1136, the “Fluorescence intensity Tadalafil” value ([1]; median GFP fluorescence by FACS, 10 μM Tadalafil, direct comparison of clones) was 814 and the “Fluorescence intensity Vardenafil” value ([1]; median GFP fluorescence by FACS, 10 μM Vardenafil, direct comparison of clones) was 4240. The “Fluorescence intensity DMSO” value ([1]; median GFP fluorescence by FACS, vehicle DMSO (no ligand), direct comparison of clones) was 359, the “GFP FACS analysis (MFI)” value ([2]; DMSO (no ligand), SDF series) was 335 and the “GFP FACS analysis (MFI)” value ([2]; DMSO (no ligand), TDF series) was 366. For the same substance, the “GFP FACS analysis (MFI)” value ([2]; DMSO (no ligand), VDF series) was 376, the “GFP FACS analysis (MFI)” value ([2]; SDF 1.235 μM) was 479 and the Percent stabilization effect ([2]; SDF 1.235 μM) was 18.0%. The Percent stabilization effect ([2]; SDF 3.704 μM) was 22.8%, the Percent stabilization effect ([2]; SDF 11.111 μM) was 30.2% and the Percent stabilization effect ([2]; SDF 33.333 μM) was 49.8%. The Percent stabilization effect ([2]; SDF 100 μM (set as 100%)) was 100.0%, the “GFP FACS analysis (MFI)” value ([2]; TDF 1.235 μM) was 418 and the Percent stabilization effect ([2]; TDF 1.235 μM) was 11.6%. It also gave a Percent stabilization effect ([2]; TDF 3.704 μM) of 19.4%, a Percent stabilization effect ([2]; TDF 11.111 μM) of 41.3% and a Percent stabilization effect ([2]; TDF 33.333 μM) of 77.0%. For the same substance, the Percent stabilization effect ([2]; TDF 100 μM (set as 100%)) was 100.0%, the Percent stabilization effect ([2]; VDF 1.235 μM) was 17.3% and the Percent stabilization effect ([2]; VDF 3.704 μM) was 41.2%. It also gave a Percent stabilization effect ([2]; VDF 11.111 μM) of 69.6%, a Percent stabilization effect ([2]; VDF 33.333 μM) of 91.0% and a Percent stabilization effect ([2]; VDF 100 μM (set as 100%)) of 100.0%.

With “LibC000007: hPDE5 (Amino acid 535-860 of WT, H613L, D724Y, F755Y), DD generated by random mutagenesis” the “Stabilization ratio” value [1] was 1.0, the Destabilizing mutation co-efficient [1] was 0.04 and the “MFI 10 μM VDF” value [1] was 234. The “MFI DMSO” value [1] was 234.

In the case of “LibC000010: hPDE5 (Amino acid 535-860 of WT, R658H), DD generated by random mutagenesis”, the “Stabilization ratio” value [1] is reported as 2.1, the Destabilizing mutation co-efficient [1] is reported as 1.17 and the “MFI 10 μM VDF” value [1] is reported as 13940. For the same substance, the “MFI DMSO” value [1] was 6713.

For “LibC000011: hPDE5 (Amino acid 535-860 of WT, S562G, L727P, R847T), DD generated by random mutagenesis”, the “Stabilization ratio” value [1] was 1.2, the Destabilizing mutation co-efficient [1] was 0.01 and the “MFI 10 μM VDF” value [1] was 67. The “MFI DMSO” value [1] was 57.

For “LibC000013: hPDE5 (Amino acid 535-860 of WT, L781P), DD generated by random mutagenesis”, the “Stabilization ratio” value [1] was 1.5, the Destabilizing mutation co-efficient [1] was 0.09 and the “MFI 10 μM VDF” value [1] was 723. For the same substance, the “MFI DMSO” value [1] was 498, the “GFP FACS analysis (MFI)” value ([1]; SDF 3.704 μM) was 3467 and the “GFP FACS analysis (MFI)” value ([1]; SDF 11.111 μM) was 5539. For the same substance, the “GFP FACS analysis (MFI)” value ([1]; SDF 33.333 μM) was 7404, the “GFP FACS analysis (MFI)” value ([1]; SDF 100 μM) was 8260 and the “GFP FACS analysis (MFI)” value ([1]; TDF 3.704 μM) was 6275. The “GFP FACS analysis (MFI)” value ([1]; TDF 11.111 μM) was 8085, the “GFP FACS analysis (MFI)” value ([1]; TDF 33.333 μM) was 8353 and the “GFP FACS analysis (MFI)” value ([1]; TDF 100 μM) was 7614. The “GFP FACS analysis (MFI)” value ([1]; VDF 1.235 μM) was 6773, the “GFP FACS analysis (MFI)” value ([1]; VDF 3.704 μM) was 7330 and the “GFP FACS analysis (MFI)” value ([1]; VDF 11.111 μM) was 7393. The “GFP FACS analysis (MFI)” value ([1]; VDF 33.333 μM) was 7308, the “GFP FACS analysis (MFI)” value ([1]; VDF 100 μM) was 7207 and the “GFP FACS analysis (MFI)” value ([2]; DMSO (no ligand), SDF series) was 943. The “GFP FACS analysis (MFI)” value ([2]; DMSO (no ligand), TDF series) was 847, the “GFP FACS analysis (MFI)” value ([2]; DMSO (no ligand), VDF series) was 854 and the “GFP FACS analysis (MFI)” value ([2]; SDF 1.235 μM) was 2076. For the same substance, the “GFP FACS analysis (MFI)” value ([2]; TDF 1.235 μM) was 3688.

“LibC000014: hPDE5 (Amino acid 535-860 of WT, A767E), DD generated by random mutagenesis” was tested, and the “Stabilization ratio” value [1] was 2.8, the Destabilizing mutation co-efficient [1] was 0.44 and the “MFI 10 μM VDF” value [1] was 6998. For the same substance, the “MFI DMSO” value [1] was 2500.
